This is an account of results in patent US20230174642A1, “AFFINITY-MATURATED ANTI-ASIC1a ANTIBODIES” (SHANGHAITECH UNIVERSITY, priority 2019, published 2023).

Substitutions are numbered along the chain they refer to.

First the molecules themselves.
T1: rat ASIC1a-eYFP (rASIC1a-eYFP) on transiently transfected CHO-K1 cells (rat, UniProt P55926 1-526)
T1 construct: whole, on cells; not shown: eYFP fusion partner
T1 sequence (looked up): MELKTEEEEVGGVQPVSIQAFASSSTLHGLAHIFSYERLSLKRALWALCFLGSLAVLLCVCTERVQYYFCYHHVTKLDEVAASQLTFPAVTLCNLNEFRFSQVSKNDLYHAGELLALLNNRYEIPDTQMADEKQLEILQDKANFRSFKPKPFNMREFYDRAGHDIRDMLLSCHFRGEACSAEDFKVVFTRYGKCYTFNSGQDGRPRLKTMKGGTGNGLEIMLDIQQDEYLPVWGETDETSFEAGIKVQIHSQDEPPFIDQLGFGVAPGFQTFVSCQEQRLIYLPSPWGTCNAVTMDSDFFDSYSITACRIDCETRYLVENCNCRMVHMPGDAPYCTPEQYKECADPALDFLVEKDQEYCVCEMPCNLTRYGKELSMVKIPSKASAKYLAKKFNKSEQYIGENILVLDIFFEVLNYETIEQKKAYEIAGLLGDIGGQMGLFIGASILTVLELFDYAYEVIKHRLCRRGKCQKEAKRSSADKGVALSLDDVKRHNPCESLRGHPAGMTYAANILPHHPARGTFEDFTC

T2: human ASIC2a-eYFP (hASIC2a-eYFP) on transiently transfected CHO-K1 cells (human, UniProt Q16515 1-512)
T2 construct: whole, on cells; not shown: eYFP fusion partner
T2 sequence (looked up): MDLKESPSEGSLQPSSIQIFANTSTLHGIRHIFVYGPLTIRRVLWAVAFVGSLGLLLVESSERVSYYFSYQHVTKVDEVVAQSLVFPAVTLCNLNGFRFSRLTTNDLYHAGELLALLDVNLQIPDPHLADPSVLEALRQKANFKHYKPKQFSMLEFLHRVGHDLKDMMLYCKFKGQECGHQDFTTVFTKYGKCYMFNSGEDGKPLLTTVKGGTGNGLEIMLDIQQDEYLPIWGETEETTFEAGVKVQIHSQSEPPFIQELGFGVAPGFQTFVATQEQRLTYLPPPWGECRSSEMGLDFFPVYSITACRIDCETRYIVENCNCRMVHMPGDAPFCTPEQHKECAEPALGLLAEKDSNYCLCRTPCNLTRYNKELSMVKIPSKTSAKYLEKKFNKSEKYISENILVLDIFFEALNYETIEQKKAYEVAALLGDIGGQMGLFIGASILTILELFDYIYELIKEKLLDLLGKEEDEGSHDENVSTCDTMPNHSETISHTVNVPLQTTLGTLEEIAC

T3: human ASIC3a-eYFP (hASIC3a-eYFP) on transiently transfected CHO-K1 cells (human, UniProt Q9UHC3 1-531)
T3 construct: whole, on cells; not shown: eYFP fusion partner
T3 sequence (looked up): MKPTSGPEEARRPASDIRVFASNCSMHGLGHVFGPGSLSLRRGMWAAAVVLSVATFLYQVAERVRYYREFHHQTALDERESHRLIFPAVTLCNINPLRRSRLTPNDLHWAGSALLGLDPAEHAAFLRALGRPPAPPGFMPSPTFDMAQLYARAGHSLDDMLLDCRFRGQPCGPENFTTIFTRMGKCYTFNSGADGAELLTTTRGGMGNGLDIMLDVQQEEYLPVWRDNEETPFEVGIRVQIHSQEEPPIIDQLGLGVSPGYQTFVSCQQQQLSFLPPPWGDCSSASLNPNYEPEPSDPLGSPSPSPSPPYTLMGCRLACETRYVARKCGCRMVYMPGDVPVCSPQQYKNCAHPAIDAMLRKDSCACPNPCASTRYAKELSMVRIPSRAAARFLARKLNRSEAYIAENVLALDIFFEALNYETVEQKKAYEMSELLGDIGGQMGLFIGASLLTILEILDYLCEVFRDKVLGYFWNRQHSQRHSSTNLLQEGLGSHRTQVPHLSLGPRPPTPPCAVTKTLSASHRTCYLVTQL

T4: mouse ASIC1a-eYFP (mASIC1a-eYFP) on transiently transfected CHO-K1 cells (mouse, UniProt Q6NXK8 1-526)
T4 construct: whole, on cells; not shown: eYFP fusion partner
T4 sequence (looked up): T1 sequence (looked up) with S476N

B1: ASC06-03-IgG1 (antibody, V domains shown)
VH: QVQLQQSGGGLVQPGGSLRLSCAASGFTFSSYAMSWVRQAPGKGLEWVSAISGSGGSTYYADSVKGRFTISRDNSKNTLYLQMNSLRAEDTAVYYCAKDSFYGRAKGSWGQGTLVTVSS
VL: QSALTQPASVSGSPGQSITISCTGTSSDVGAYNYVSWYQQQPGKAPKLMIYGVSNRPSGVSNRFSGSKSGNAASLTISGLQAEDEADYYCSSYTSSSTYVFGTGTKLTVLG
notes: Full length IgG1
B2: ASC06-02-IgG1 (antibody, V domains shown)
VH: B1 VH with Y102F
VL: B1 VL
notes: Full length IgG1
B3: ASC06-04-IgG1 (antibody, V domains shown)
VH: B1 VH with S108V
VL: B1 VL
notes: Full length IgG1
B4: ASC06-01-IgG1 (antibody, V domains shown)
VH: B1 VH with F101Y, Y102F, R104Y, A105S, S108D
VL: B1 VL
notes: Full length IgG1
B5: ASC06-IgG1 (antibody, V domains shown)
VH: B1 VH with R104Y, A105S, S108D
VL: B1 VL
notes: Tested as full length IgG1; also called WT antibody ASC06-IgG1; parental ASC06-IgG1 antibody

One assay has as its target T1, rat ASIC1a-eYFP (rASIC1a-eYFP) on …. The assay can be described thus: FACS on transiently transfected CHO-K1 cells. Here is the method:
(§1) To investigate the species selectivity of ASC06-IgG1 affinity-matured antibodies, plasmids encoding fusion proteins of eYFP with […] homologs of ASIC1a were constructed. These plasmids included those encoding human ASIC1a (hASIC1a-eYFP), mouse ASIC1a (mASIC1a-eYFP), and rat ASIC1a (rASIC1a-eYFP). CHO-K1 cells were transiently transfected with the ASIC1a-eYFP plasmids, and a fluorescence activated cell sorting (FACS)-based binding assay was carried out to determine binding to the homologs or isoforms of ASIC1a expressed on the cell surface. An isotype control was used as a negative control for binding (NC). ASC06-IgG1 was used as a positive control. Summarily, the CHO-K1 cells expressing the ASIC1a-eYFP (green) homologs were stained with the indicated antibody (red) and subjected to FACS.
(§2) To examine the ASIC isotype selectivity of ASC06-IgG1 affinity-matured antibodies, plasmids encoding fusion proteins of eYFP with isoforms of […] were constructed. These plasmids included those encoding human ASIC1b (hASIC1b-eYFP), human ASIC2a (hASIC2a-eYFP), and human ASIC3a (hASIC3a-eYFP). CHO-K1 cells were transiently transfected with these plasmids and used in a FACS-based binding assay disclosed herein. Binding of ASC06-IgG1 to CHO-K1 cells expressing human ASIC1a-eYFP (hASIC1a-eYFP) was used as a positive control (data not shown and FIG. 2), and an isotype control was used as a negative control for binding (NC).
B1: the binding result is listed as “binds”.
Still for that read-out and setting: for B2 the value was “binds”.
On the same count and under the same terms, the entry for B3 is “binds”; for B4 it is “binds”; for B5 it is “binds”.

For another assay, the target named is T2, human ASIC2a-eYFP (hASIC2a-eYFP) on …. Kind of assay: FACS on transiently transfected CHO-K1 cells. The method, then: as §1, §2
Take B1: the binding result is on record as “no binding”.
The same measure, in the same setting: for B2 the value was “no binding”; for B3, “no binding”; for B4, “no binding”.
B5: the binding result is given as “no binding”.

The target of another assay is T3, human ASIC3a-eYFP (hASIC3a-eYFP) on …. Kind of assay: FACS on transiently transfected CHO-K1 cells. The method, then:
as §1, §2
On to B1, for which the binding result is “no binding”.
Same read-out and setting: for B2 the value was “no binding”; for B3, “no binding”.
Same read-out and setting: for B4 the value was “no binding”; for B5, “no binding”.

A further assay addresses T4, mouse ASIC1a-eYFP (mASIC1a-eYFP) on …. Kind of assay: FACS on transiently transfected CHO-K1 cells. Here is the method: as §1, §2
For B1, the binding result was “binds”.
Still for that read-out and setting: the entry for B2 is “binds”; for B3 it is “binds”; for B4 it is “binds”.
On the same count and under the same terms, for B5 the value was “binds”.
